# Reference: patent US20030162229A1
# Where no end group is shown, it is not given here. The star is where a group is joined. Biotin = O=C1N[C@H]2[C@H](CS[C@H]2CCCCC(=O)*)N1
# B1: human recombinant 30 kDa inhibin A (ligand)
# chain 1: STPLMSWPWSPSALRLLQRPPEEPAAHANCHRVALNISFQELGWERWIVYPPSFIFHYCHGGCGLHIPPNLSLPVPGAPPTPAQPYSLLPGAQPCCAALPGTMRPLHVRTTSDGGYSFKYETVPNLLTQHCACI
# chain 2: GLECDGKVNICCKKQFFVSFKDIGWNDWIIAPSGYHANYCEGECPSHIAGTSGSSLSFHSTVINHYRMRGHSPFANLKSCCVPTKLRPMSMLYYDDGQNIIKKDIQNMIVEECGCS
# B2: non-biotinylated peptide #20 with NH2-Cys-Ser-Lys-Lys-Gly amino terminal spacer (peptide)
# peptide: H-CSKKGPNLSLPVPGAPPTP
# B3: non-biotinylated peptide #5 with NH2-Cys-Ser-Lys-Lys-Gly amino terminal spacer (peptide)
# peptide: H-CSKKGWSPSALRLLQRPPE
# B4: non-biotinylated peptide #30 with NH2-Cys-Ser-Lys-Lys-Gly amino terminal spacer (peptide)
# peptide: H-CSKKGRTTSDGGYSFKYET
# B5: biotinylated peptide #4 (Set 1) of the human (alpha)C subunit (peptide)
# peptide: Biotin-SGSGMSWPWSPSALRLLQ
# B6: biotinylated peptide #20 (Set 1) of the human (alpha)C subunit (peptide)
# peptide: Biotin-SGSGPNLSLPVPGAPPTP
# B7: biotinylated peptide #21 (Set 1) of the human (alpha)C subunit (peptide)
# peptide: Biotin-SGSGLPVPGAPPTPAQPY
# B8: biotinylated peptide #26 (Set 1) of the human (alpha)C subunit (peptide)
# peptide: Biotin-SGSGQPCCAALPGTMRPL
# modifications: cysteine pairing not given here
# B9: biotinylated peptide #22 (Set 1) of the human (alpha)C subunit (peptide)
# peptide: Biotin-SGSGGAPPTPAQPYSLLP
# B10: biotinylated peptide #8 (Set 1) of the human (alpha)C subunit (peptide)
# peptide: Biotin-SGSGPEEPAAHANCHRVA
# B11: biotinylated peptide #24 (Set 1) of the human (alpha)C subunit (peptide)
# peptide: Biotin-SGSGPYSLLPGAQPCCAA
# modifications: cysteine pairing not given here
# B12: biotinylated peptide #25 (Set 1) of the human (alpha)C subunit (peptide)
# peptide: Biotin-SGSGLPGAQPCCAALPGT
# modifications: cysteine pairing not given here
# B13: biotinylated peptide #7 (Set 1) of the human (alpha)C subunit (peptide)
# peptide: Biotin-SGSGLQRPPEEPAAHANC
# B14: biotinylated peptide #29 (Set 1) of the human (alpha)C subunit (peptide)
# peptide: Biotin-SGSGPLHVRTTSDGGYSF
# B15: biotinylated peptide #17 (Set 1) of the human (alpha)C subunit (peptide)
# peptide: Biotin-SGSGHYCHGGCGLHIPPN
# modifications: cysteine pairing not given here
# B16: biotinylated peptide #33 (Set 1) of the human (alpha)C subunit (peptide)
# peptide: Biotin-SGSGETVPNLLTQHCACI
# modifications: cysteine pairing not given here
# B17: biotinylated peptide #27 (Set 1) of the human (alpha)C subunit (peptide)
# peptide: Biotin-SGSGAALPGTMRPLHVRT
# B18: biotinylated peptide #31 (Set 1) of the human (alpha)C subunit (peptide)
# peptide: Biotin-SGSGDGGYSFKYETVPNL
# Molecular target: antiserum As #128 (sheep polyclonal, raised to the alpha subunit of human inhibin, boosted with human recombinant 30-kDa inhibin)
# Assay: RIA, iodinated hr-inhibin tracer
row,ED50 [nM],Binder
1,2,B1
2,150,B2

# Molecular target: antiserum As #41 (sheep polyclonal, raised to the alpha subunit of human inhibin)
# Assay: RIA, iodinated hr-inhibin tracer
row,ED50 [nM],Binder
1,0.4,B3

# Molecular target: rabbit antiserum #1989
# Assay: RIA, iodinated hr-inhibin tracer
row,ED50 [nM],Binder
1,2500,B4
2,0.1,B1

# Molecular target: antiserum As #128 (sheep polyclonal, raised to the alpha subunit of human inhibin, boosted with human recombinant 30-kDa inhibin)
# Assay: RIA, competition with iodinated inhibin
row,ED50 [nM],Binder
1,3800,B5
2,20,B6
3,156,B7
4,625,B8
5,156,B9
6,4800,B10
7,900,B11
8,2000,B12
9,1600,B13
10,156,B14
11,10000,B15
12,2500,B16
13,2000,B17
14,1400,B18

# Molecular target: antiserum As #41 (sheep polyclonal, raised to the alpha subunit of human inhibin)
# Assay: RIA, competition with iodinated inhibin
row,ED50 [nM],Binder
1,1300,B5
2,3600,B6
3,1000,B7
4,1000,B8
5,5000,B9
6,6200,B11
7,5000,B12
8,1250,B13
9,5000,B14
10,1050,B15
11,4000,B16
12,5000,B17
13,2400,B18

# Molecular target: rabbit antiserum #1989
# Assay: RIA, competition with iodinated inhibin
row,ED50 [nM],Binder
1,> 2500,B5
2,> 2500,B6
3,> 2500,B7
4,> 2500,B8
5,> 2500,B9
6,> 2500,B10
7,> 2500,B11
8,> 2500,B12
9,> 2500,B13
10,> 2500,B14
11,> 2500,B15
12,> 2500,B16
13,> 2500,B17
14,> 2500,B18

# Molecular target: antibody pair of the (alpha)C IFMA: As #128 as coating antibody and As #41 as label
# Assay: inhibin IFMA; #5 on As #128 and #5 on As #41
row,% suppression at 2ng inhibin [%],Binder
1,73,B3

# Molecular target: antiserum As #128 (sheep polyclonal, raised to the alpha subunit of human inhibin, boosted with human recombinant 30-kDa inhibin)
# Assay: inhibin IFMA; #5 on As #128, buffer on As #41
row,% suppression at 2ng inhibin [%],Binder
1,55,B3

# Molecular target: antiserum As #41 (sheep polyclonal, raised to the alpha subunit of human inhibin)
# Assay: inhibin IFMA; buffer on As #128, #5 on As #41
row,% suppression at 2ng inhibin [%],Binder
1,67,B3

# Molecular target: antiserum As #128 (sheep polyclonal, raised to the alpha subunit of human inhibin, boosted with human recombinant 30-kDa inhibin)
# Assay: inhibin IFMA; #20 on As #128, buffer on As #41
row,% suppression at 2ng inhibin [%],Binder
1,13,B2

# Molecular target: antiserum As #41 (sheep polyclonal, raised to the alpha subunit of human inhibin)
# Assay: inhibin IFMA; buffer on As #128, #30 on As #41
row,% suppression at 2ng inhibin [%],Binder
1,28,B4

# Molecular target: antiserum As #41 (sheep polyclonal, raised to the alpha subunit of human inhibin)
# Assay: two-site assay, biotinylated As #41 pre-incubated with peptide, inhibin on As #128 plate
row,% inhibition [%],Binder
1,50,B3

# Molecular target: antiserum As #128 (sheep polyclonal, raised to the alpha subunit of human inhibin, boosted with human recombinant 30-kDa inhibin)
# Assay: two-site assay, peptide pre-incubated on As #128 coated plate, then hr-inhibin, biotinylated As #41
row,% suppression in binding [%],Binder
1,65,B3
2,23,B2
